Literature values as cited in article PMC6295471.

What was measured:
[1] = target: Mxd1 5-24 (Homo sapiens) (UniProt Q05195)
[2] = target: Mxd1 5-20 (Homo sapiens) (UniProt Q05195)
[3] = target: Sap30 SID (Mus musculus) (UniProt O88574)
UniProt O88574, sequence (O88574 130-220): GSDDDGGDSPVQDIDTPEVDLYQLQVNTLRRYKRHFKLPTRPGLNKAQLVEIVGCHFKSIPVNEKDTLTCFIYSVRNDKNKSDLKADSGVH

UniProt Q05195, sequence (Q05195 5-24): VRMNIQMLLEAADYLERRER

Substance	Kd [1] [nM]	Kd [2] [nM]	Kd [3] [nM]
Sin3 PAH2 (from UniProt Q62141)	400	1400	
Sin3 PAH3 (from UniProt Q60520)			10
